Results as given in doi:10.1101/2024.01.23.576890 (bioRxiv, 2024).

Molecular target: native OspA on the surface of live B. burgdorferi B31 (Borrelia burgdorferi strain B31 …, UniProt P0CL66)
Test: flow cytometry on cells

Sequence of native OspA on the surface of live B. burgdorferi B31 (P0CL66 17-273): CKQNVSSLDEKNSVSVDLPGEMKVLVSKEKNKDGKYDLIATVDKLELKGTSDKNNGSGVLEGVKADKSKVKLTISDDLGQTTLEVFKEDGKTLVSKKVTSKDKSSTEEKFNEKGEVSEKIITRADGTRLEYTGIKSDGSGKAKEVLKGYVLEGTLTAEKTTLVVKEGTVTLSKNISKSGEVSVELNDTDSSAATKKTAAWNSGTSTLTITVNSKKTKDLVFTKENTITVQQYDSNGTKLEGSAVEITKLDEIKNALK

- binding result: binds
B1: LA-2 (bin 3 OspA monoclonal antibody; chimeric LA-2 IgG1) (antibody, V domains shown)
VH: QIQLVQSGPELKKPGETVKISCKASGYTFTDYSMYWVKQAPGKGLKRMGWINTETGEPTYADDFKGRFALSLDTSASTAYLHISNLKNEDTATYFCARGLDSWGQGTSVTVSS
VL: DIQMTQSPSSLSATLGGKVTITCKASQDINKYIAWYQHKPGKGPRLLIHYTSTLQPGNPSRFSGSGSGRDYSFSISNLEAEDIAIYYCLQYDNLQRTFGGGTKVEIK
